Laboratory results: patent US20100291106A1 (Novartis, published 2010)
Where two headings read alike, the source gives them in different places.

How the values were obtained:
[1] = molecular target: T1, cynomolgus complement C3b protein (cynomolgus monkey (Macaca fascicularis)); experiment: cell-based or functional assay
[2] = molecular target: T1, cynomolgus complement C3b protein; experiment: solution equilibrium titration (SET), ECL detection, Fab
[3] = molecular target: T1, cynomolgus complement C3b protein; experiment: SPR (Biacore), C3b captured by anti-C3d antibody, Fab as analyte
human C5 [4] = molecular target: T2, human C5 (human, UniProt P01031 19-673; P01031 678-1676); experiment: Direct ELISA at 2 ug/ml C5, 200 nM Fab
T2 construct: Captured by an anti-C5 antibody in the ELISA

human C5 [5] = molecular target: T2, human C5; experiment: cross reactivity, capture ELISA with anti-C5 capture antibody, anti-His detection
[6] = molecular target: T3, human complement C3b protein (human, UniProt P01024 23-667; P01024 749-1663); experiment: bead proximity assay, C3b-acceptor beads; competitor biotinylated fH
T3 construct: Purified plasma C3b (Complement Technology, Quidel); Depending on the assay it was captured by an anti-C3d antibody, coated, biotinylated or coupled to beads; also called human C3b; huC3b
Procedure: (§1) For C3b-C3b and C3b-fP proximity, Fabs or IgGs respectively were pre-incubated with C3b-Acceptor beads (20 μg/ml) for 60 min at room temperature. C3b-Donor beads or fP-Donor beads (20 μg/ml) were then added, and the plate was incubated overnight at room temperature before reading. For C3b-fB and C3b-fH proximity, antibodies were pre-incubated with C3b-Acceptor beads (20 μg/ml) for 60 minutes at room temperature. Biotinylated fB(D24G/N260D) or fH were then added, and incubated for 60 minutes at room temperature. SA-Donor beads were then added (20 μg/ml) and the plate was incubated overnight at room temperature before reading. Plates were read on the BMG Pherastar (ex=680, em=520-620).

human C3d [7] = molecular target: T4, human C3d (human, UniProt P01024 1002-1303); experiment: cross reactivity, ELISA on C3d, anti-His detection
T4 construct: domain: C3d
Procedure: In order to determine whether the anti-C3b antibodies described herein can bind to complement pathway components iC3b and C3c, the following steps were performed: Directly add iC3b(complement Technologies A115), C3d (complement Technologies A117), or C3c (complement Technologies A116), at 2 μg/ml in Carbonate Buffer onto Coat Maxisorp plate Nunc (442404) at 100 μl per well. Seal plates and incubate at 4° C. overnight. Aspirate plates and wash 3 times with PBS/0.5% Tween 20. Block plates with Diluent (PBS, 4% BSA Fraction V (Fisher ICN16006980), 0.1% Tween 20 (Sigma P1379), 0.1% Triton X-100 (Sigma P234729)) and incubate for 2 h at room temperature or overnight at 4° C. Then wash plates once with PBS/0.5% Tween 20. Dilute Fabs at 100 nM and subsequent dilutions (or higher concentration if needed) in diluent and plate 100 μl per well. Incubate at room temperature for 1 h. Wash plates 3 times with PBS/0.5% Tween 20. Add 100 μl/well of anti-Histidine-HRP monoclonal detection antibody at 1:400 in diluent and incubate at room temperature for 1 h. Then wash 4 times with PBS/0.5% Tween 20. Add 100 μl of TMB substrate (Pierce 34028) and incubate at room temperature for up to 5 min. Add 50 μl of Stop solution (2N Sulfuric Acid) to each well and read plate at 450 nm and correct for plastic reading at 570 nm.

[8] = molecular target: T3, human complement C3b protein; experiment: bead proximity assay, C3b-acceptor beads; competitor biotinylated fB(D24G/N260D)
Procedure: as §1

[9] = molecular target: T1, cynomolgus complement C3b protein; experiment: SPR (Biacore), C3b captured by anti-C3d antibody, Fab as analyte; remark: listed apart in the source
[10] = molecular target: T3, human complement C3b protein; experiment: as above
[11] = molecular target: T1, cynomolgus complement C3b protein; experiment: cell-based or functional assay; remark: listed apart in the source
[12] = molecular target: T3, human complement C3b protein; experiment: cell-based or functional assay
[13] = molecular target: T1, cynomolgus complement C3b protein; experiment: solution equilibrium titration (SET), ECL detection, Fab; remark: listed apart in the source
[14] = molecular target: T3, human complement C3b protein; experiment: as above
[15] = molecular target: T3, human complement C3b protein; experiment: cell-based or functional assay; remark: listed apart in the source
human C3d [16] = molecular target: T4, human C3d; experiment: C3d binding ELISA, IgG titrated from about 0.006 to 100 nM
[17] = molecular target: T3, human complement C3b protein; experiment: ELISA, C3b or C3 captured by anti-C3d antibody
Procedure: The C3b antibodies were examined to determine whether they were selective for binding to C3b relative to the C3b precursor C3. Briefly, binding selectivity for C3b was determined by performing the following steps. Coat Maxisorp plate Nunc (442404) with anti-C3d rabbit monoclonal (abcam 17453) at 2 μg/ml in Carbonate Buffer at 100 μl/well. Seal plates and incubate at 4° C. overnight. Aspirate plates and wash 3 times with PBS/0.5% Tween 20. Block plates with Diluent (PBS, 4% BSA Fraction V (Fisher ICN16006980), 0.1% Tween 20 (Sigma P1379), 0.1% Triton X-100 (Sigma P234729)) and incubate for 2 h at room temperature or overnight at 4° C. Then wash plates once with PBS/0.5% Tween 20. Dilute purified C3b (complement technologies A114 lot 21) and C3 (complement technologies A113c) at 1 μg/ml in diluent and plate 100 μl per well. Incubate for 1 h at room temperature. Then wash 3 times with PBS/0.5% Tween 20.
Dilute Fabs at 100 nM and subsequent dilutions (or higher concentration) in diluent and plate 100 μl per well. Incubate at room temperature for 1 h. Wash plates 3 times with PBS/0.5% Tween 20. Add 100 μl/well of anti-Histidine-HRP monoclonal detection antibody at 1:400 in diluent and incubate at room temperature for 1 h. Then wash 4 times with PBS/0.5% Tween 20. Add 100 μl of TMB substrate (Pierce 34028) and incubate at room temperature for up to 5 min. Add 50 μl of Stop solution (2N Sulfuric Acid) to each well and read plate at 450 nm and correct for plastic reading at 570 nm.

[18] = molecular target: T1, cynomolgus complement C3b protein; experiment: SPR (Biacore T100), C3b captured by anti-C3d antibody, IgG as analyte, 1:1 model
[19] = molecular target: T3, human complement C3b protein; experiment: as above
[20] = molecular target: T3, human complement C3b protein; experiment: AlphaScreen bead proximity, C3b-Acceptor beads pre-incubated with antibody, then C3b-Donor beads; inhibition of C3b-C3b dimer formation; unit from the axis [Antibody] nM [D]
Procedure: (§2) In brief, purified C3b and fP were conjugated to unconjugated acceptor or donor beads (PerkinElmer) using AminoLink Reductant (Pierce) during a 48 h incubation at room temperature. Beads were quenched using Carboxymethoxylamine Hemihydrochloride (Aldrich), and purified by centrifugation at 13000 rpm and three washes with 0.1M TBST. Purified fB(D24G/N260D) and fH were biotinylated during a 30 min incubation with 20-fold molar excess of NHS-Chromogenic-biotin (Pierce) at room temperature, and purified using Zeba 0.5 ml desalting columns (Pierce).
as §1

[21] = molecular target: T3, human complement C3b protein; experiment: AlphaScreen bead proximity, C3b-Acceptor beads pre-incubated with antibody, then biotinylated fH and SA-Donor beads; blocked ligand: fH [C]
Procedure: as §2, §1

[22] = molecular target: T3, human complement C3b protein; experiment: AlphaScreen bead proximity, C3b-Acceptor beads pre-incubated with antibody, then biotinylated fB(D24G/N260D) and SA-Donor beads; blocked ligand: fB [A]
Procedure: as §2, §1

T4 sequence (P01024 1002-1303 limits assumed): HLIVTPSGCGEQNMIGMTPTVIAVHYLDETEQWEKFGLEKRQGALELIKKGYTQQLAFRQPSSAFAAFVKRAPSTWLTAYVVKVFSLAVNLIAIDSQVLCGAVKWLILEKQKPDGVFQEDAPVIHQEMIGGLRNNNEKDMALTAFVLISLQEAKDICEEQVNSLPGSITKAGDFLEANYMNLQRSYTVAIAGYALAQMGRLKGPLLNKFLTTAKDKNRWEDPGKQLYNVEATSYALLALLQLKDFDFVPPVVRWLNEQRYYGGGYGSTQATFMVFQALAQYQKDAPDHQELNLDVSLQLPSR
T3 sequence (P01024 23-667 P314L, chain 1 of 2): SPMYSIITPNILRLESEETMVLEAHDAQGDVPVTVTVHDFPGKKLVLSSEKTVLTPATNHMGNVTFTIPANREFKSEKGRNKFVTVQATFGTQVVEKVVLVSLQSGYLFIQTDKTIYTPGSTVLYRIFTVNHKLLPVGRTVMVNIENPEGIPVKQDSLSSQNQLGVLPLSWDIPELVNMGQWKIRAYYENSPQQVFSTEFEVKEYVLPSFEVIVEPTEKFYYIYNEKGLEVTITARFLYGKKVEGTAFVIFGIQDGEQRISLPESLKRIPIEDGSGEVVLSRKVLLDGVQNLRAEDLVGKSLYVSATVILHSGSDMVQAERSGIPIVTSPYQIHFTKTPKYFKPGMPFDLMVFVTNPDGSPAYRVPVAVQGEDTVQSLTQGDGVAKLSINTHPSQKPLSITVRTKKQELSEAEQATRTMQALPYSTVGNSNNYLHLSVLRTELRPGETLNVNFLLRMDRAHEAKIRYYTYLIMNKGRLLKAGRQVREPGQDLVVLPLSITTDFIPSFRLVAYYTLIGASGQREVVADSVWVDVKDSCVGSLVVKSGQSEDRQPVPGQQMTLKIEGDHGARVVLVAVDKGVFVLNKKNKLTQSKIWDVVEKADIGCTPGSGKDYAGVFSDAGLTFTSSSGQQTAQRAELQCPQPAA
T3 sequence (P01024 749-1663, chain 2 of 2): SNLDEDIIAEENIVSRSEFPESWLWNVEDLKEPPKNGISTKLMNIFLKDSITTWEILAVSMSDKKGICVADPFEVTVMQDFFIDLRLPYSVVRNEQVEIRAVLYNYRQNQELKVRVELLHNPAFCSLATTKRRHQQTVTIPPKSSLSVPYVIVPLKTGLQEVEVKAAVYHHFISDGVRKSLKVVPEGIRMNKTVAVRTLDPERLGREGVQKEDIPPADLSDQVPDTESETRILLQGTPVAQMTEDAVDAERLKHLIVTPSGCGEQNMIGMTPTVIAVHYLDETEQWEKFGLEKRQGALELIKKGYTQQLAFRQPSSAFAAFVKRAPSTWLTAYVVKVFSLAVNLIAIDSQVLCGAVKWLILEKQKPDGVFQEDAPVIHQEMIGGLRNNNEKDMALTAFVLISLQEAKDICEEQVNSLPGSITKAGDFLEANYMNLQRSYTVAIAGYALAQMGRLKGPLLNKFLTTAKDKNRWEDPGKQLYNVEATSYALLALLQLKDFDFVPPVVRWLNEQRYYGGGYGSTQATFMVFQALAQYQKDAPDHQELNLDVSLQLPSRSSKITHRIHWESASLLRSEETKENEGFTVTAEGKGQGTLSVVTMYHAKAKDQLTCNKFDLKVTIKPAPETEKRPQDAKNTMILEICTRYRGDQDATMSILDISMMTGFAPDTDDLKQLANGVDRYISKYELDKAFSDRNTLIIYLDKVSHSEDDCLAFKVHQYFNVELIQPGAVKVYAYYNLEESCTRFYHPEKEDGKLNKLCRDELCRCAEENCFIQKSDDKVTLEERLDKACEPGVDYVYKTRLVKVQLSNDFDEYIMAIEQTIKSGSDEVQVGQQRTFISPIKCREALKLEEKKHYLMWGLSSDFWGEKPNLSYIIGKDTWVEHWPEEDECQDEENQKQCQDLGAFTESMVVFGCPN
T2 sequence (P01031 19-673 limits assumed, chain 1 of 2): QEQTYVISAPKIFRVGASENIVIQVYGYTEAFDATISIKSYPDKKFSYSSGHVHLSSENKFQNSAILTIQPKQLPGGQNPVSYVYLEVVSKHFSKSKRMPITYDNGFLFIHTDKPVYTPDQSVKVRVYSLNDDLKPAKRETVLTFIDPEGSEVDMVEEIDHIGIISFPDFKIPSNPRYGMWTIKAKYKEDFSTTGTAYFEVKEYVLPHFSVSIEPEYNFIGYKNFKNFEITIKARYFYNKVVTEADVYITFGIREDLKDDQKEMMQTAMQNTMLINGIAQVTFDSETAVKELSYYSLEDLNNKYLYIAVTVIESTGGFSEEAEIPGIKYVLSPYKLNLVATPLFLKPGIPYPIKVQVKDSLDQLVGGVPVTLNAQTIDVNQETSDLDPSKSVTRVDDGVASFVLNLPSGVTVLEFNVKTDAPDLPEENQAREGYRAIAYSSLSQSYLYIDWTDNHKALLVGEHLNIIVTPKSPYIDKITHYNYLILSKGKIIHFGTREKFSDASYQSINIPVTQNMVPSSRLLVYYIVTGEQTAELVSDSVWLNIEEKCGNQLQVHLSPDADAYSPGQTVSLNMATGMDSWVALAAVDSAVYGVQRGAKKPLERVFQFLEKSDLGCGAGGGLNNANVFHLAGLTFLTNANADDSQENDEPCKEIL
T2 sequence (P01031 678-1676 limits assumed, chain 2 of 2): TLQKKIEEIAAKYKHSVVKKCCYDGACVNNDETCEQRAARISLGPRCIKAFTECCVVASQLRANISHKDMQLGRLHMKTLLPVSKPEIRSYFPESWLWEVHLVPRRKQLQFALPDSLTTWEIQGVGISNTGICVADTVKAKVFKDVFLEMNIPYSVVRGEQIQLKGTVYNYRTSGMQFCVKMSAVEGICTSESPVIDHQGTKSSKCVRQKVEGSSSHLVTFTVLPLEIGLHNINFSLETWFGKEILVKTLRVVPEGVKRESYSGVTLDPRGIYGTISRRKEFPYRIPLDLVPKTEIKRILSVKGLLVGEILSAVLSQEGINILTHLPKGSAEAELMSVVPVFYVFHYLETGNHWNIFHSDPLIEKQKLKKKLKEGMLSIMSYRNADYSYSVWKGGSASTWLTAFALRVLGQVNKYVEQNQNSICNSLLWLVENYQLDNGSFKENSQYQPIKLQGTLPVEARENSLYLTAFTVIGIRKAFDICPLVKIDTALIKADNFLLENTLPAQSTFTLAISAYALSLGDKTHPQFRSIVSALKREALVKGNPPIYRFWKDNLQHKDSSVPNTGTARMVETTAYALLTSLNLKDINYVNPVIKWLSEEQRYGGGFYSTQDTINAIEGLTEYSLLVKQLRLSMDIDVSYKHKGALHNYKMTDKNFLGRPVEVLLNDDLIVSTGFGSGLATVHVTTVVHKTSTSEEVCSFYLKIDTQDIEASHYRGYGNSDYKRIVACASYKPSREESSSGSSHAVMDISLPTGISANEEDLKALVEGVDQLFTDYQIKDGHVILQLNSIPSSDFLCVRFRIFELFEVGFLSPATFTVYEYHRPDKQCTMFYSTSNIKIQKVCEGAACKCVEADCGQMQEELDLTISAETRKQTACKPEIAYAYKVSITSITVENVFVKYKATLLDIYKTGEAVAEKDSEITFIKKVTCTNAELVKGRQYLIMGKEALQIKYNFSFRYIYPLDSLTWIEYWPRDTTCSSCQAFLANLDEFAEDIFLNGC

| Binder | binding result (human C5 [5]) | IC50 [6] | binding result (human C3d [7]) | IC50 [8] | Kd [9] | Kd [10] | C3b Dep (nM), cyno serum, IC50 [11] | HA (nM), 10% cyno serum, IC50 [11] | MAC Dep (nM), cyno serum, IC50 [11] | C3b Dep (nM), human serum, IC50 [12] | HA (nM), 10% human serum, IC50 [12] | MAC Dep (nM), human serum, IC50 [12] | Kd [13] | Kd [14] | further results |
| --- | --- | --- | --- | --- | --- | --- | --- | --- | --- | --- | --- | --- | --- | --- | --- |
| MOR9674 Fab format (Fab, V domains shown) VH: EVQLVQSGAEVKKPGASVKVSCKASGYTFTSYSMHWVRQAPGQGLEWMGLINPYNGNTHYAQKFQGRVTMTRDTSISTAYMELSSLRSEDTAVYYCARMLRFDVWGQGTLVTVSS VL: ESALTQPASVSGSPGQSITISCTGTSSDGGGYNYVSWYQQHPGKAPKLMIYGVSNRPSGVSNRFSGSKSGNTASLTISGLQAEDEADYYCQTYTRYSDSPVFGGGTKLTVLG | – | – | – | – | – | – | – | – | – | – | – | – | – | – | C3b Dep (nM), cyno serum, IC50 [1]: 70 nM; HA (nM), 10% cyno serum, IC50 [1]: 78 nM; MAC Dep (nM), cyno serum, IC50 [1]: 17 nM; Kd [2]: 0.09 nM; Kd [3]: 0.119 nM; binding result (human C5 [4]): no binding (tested: 200 nM) |
| MOR09423 Fab (Fab, V domains shown, also called Fab 9423) VH: QVQLVQSGAEVKKPGASVKVSCKASGYTFTGYYINWVRQAPGQGLEWMGIISPNQGTTGYAQKFQGRVTMTRDTSISTAYMELSSLRSEDTAVYYCARGNYDHLDYWGQGTLVTVSS VL: DIQMTQSPSSLSASVGDRVTITCRASQGISNYLNWYQQKPGKAPKLLIYDASTLQSGVPSRFSGSGSGTDFTLTISSLQPEDFATYYCQQDWHTLPVTFGQGTKVEIKR | no binding | 0.08 nM | no binding | 0.2 nM | 0.486 nM | 0.075 nM | 66 nM | 83 nM | 4 nM | 14 nM | 48 nM | 1 nM | 0.34 nM | 0.1 nM | – |
| MOR09124 Fab (Fab, V domains shown, HCDR2-matured derivative of parental MOR08305) VH: QVQLVESGGGLVQPGGSLRLSCAASGFTFSSYWMTWVRQAPGKGLEWVSSIKIKPDGYAASVKGRFTISRDNSKNTLYLQMNSLRAEDTAVYYCARLFYQYFARMDYWGQGTLVTVSS VL: DIQMTQSPSSLSASVGDRVTITCRASQDISNYLNWYQQKPGKAPKLLIYAASNLQSGVPSRFSGSGSGTDFTLTISSLQPEDFATYYCQQYDSYSPTFGQGTKVEIKR | no binding | 1 nM | no binding | 3 nM | 0.033 nM | 0.007 nM | 73 nM | 101 nM | 5 nM | 16 nM | 44 nM | 1 nM | 0.021 nM | 0.001 nM | – |
| MOR09612 IgG (antibody, V domains shown, Germlined human IgG1 with leucines 234 and 235 changed to alanines, kappa; also called antibody 9612) VH: EVQLVESGGGLVQPGGSLRLSCAASGFTFSSYWMTWVRQAPGKGLEWVSSIKIKPDGYAASVKGRFTISRDNSKNTLYLQMNSLRAEDTAVYYCARLFYQYFARMDYWGQGTLVTVSS VL: DIQMTQSPSSLSASVGDRVTITCRASQDISNYLNWYQQKPGKAPKLLIYAASNLQSGVPSRFSGSGSGTDFTLTISSLQPEDFATYYCQQWDSFSPTFGQGTKVEIKR | – | – | – | – | – | – | – | – | – | – | – | – | – | – | MAC deposition on zymosan, IC50 [15]: ≤ 5 nM; hemolysis of rabbit red blood cells, 10% human or cynomolgus serum, IC50 [15]: ≤ 50 nM; inhibition of C3a and C5a generation during hemolysis, IC50 [15]: ≤ 50 nM; binding result (human C3d [16]): no binding (tested: 100 nM); fold binding selectivity for C3b over C3 [17]: > 1000 fold; Kd [18]: 0.0253 nM; koff [18]: 8.67e-05 s⁻¹; kon [18]: 3.43e+06 M⁻¹ s⁻¹; Kd [19]: 0.00179 nM; koff [19]: 9.04e-06 s⁻¹; kon [19]: 5.05e+06 M⁻¹ s⁻¹; EC50 [20]: 340 nM; IC50 (read off the curve) [21]: ~0.04 nM; IC50 (read off the curve) [22]: ~0.05 nM |
